Among the data in the Immune Epitope Database (IEDB) are Kd and IC50 values, retold here.

The target of assay [1] is HLA-B*53:01. Nature of the assay: IEDB peptide-MHC binding, purified MHC/competitive/radioactivity; filed as Kd, often an IC50 or EC50 that approximates it; ≥ and ≤ were set here for values at or beyond the usual limits of such assays.
Assay [2] concerns the target HLA-B*54:01. Described as above.
Assay [3] concerns the target HLA-B*51:01. The assay is described as above.
Assay [4] has as its target HLA-B*08:01. The assay is described as above. Conditions: source organism: Hepacivirus hominis.
Assay [5] deals with HLA-B*35:01. Described as above.
For assay [6], the target named is HLA-A*11:01. Description: IEDB peptide-MHC binding, purified MHC/competitive/fluorescence; ≥ and ≤ were set here for values at or beyond the usual limits of such assays.
Assay [7] deals with HLA-B*44:02. Nature of the assay: IEDB peptide-MHC binding, purified MHC/competitive/radioactivity; filed as Kd, often an IC50 or EC50 that approximates it; ≥ and ≤ were set here for values at or beyond the usual limits of such assays.
Assay [8] deals with HLA-B*18:01. The description is as above.
Assay [9] has as its target HLA-B*45:01. The description is as above.
In assay [10] the target is HLA-B*44:03. Described as above.
Assay [11] concerns the target HLA-B*40:02. The assay is described as above.
The target of assay [12] is HLA-B*40:01. The assay is described as above.
For assay [13], the target named is HLA-B*07:02. Described as above.
Assay [14] concerns the target HLA-A*24:02. Nature of the assay: IEDB peptide-MHC binding, purified MHC/competitive/fluorescence; ≥ and ≤ were set here for values at or beyond the usual limits of such assays.
The mark [15] stands for this setting: source organism: Hepacivirus hominis.
Where [16] appears, read: source organism: Zaire ebolavirus.
[17] abbreviates: source organism: Mammarenavirus juninense.
The mark [18] stands for this setting: source organism: SARS coronavirus Tor2.
Where [19] appears, read: source organism: Mammarenavirus machupoense.
The mark [20] stands for this setting: source organism: Vaccinia virus.
Where [21] appears, read: source organism: Vaccinia virus WR.
Where [22] appears, read: source organism: Lymphocytic choriomeningitis virus (strain Armstrong).

Turning to RPALVFDIT, the dissociation constant Kd in assay [1] (setting [15]) was not below 50.2 µM; in assay [2] (setting [15]) it was 0.0954 µM; in assay [3] (setting [15]), not below 30.7 µM; in [4], 2.91 µM; in assay [5] (setting [15]) it was 2080 nM.
In the case of TFSILNRKA, the IC50 in assay [6] (setting [16]) stood at 66.5 µM.
As to SDFLISEML, the dissociation constant Kd in assay [7] (setting [17]) was 2.4 µM; in [8] (setting [17]), not below 56 µM; in assay [9] (setting [17]) it was not below 27.6 µM; in assay [10] (setting [17]) it was not below 51.5 µM; in [11] (setting [17]), 0.0171 µM; in [12] (setting [17]), 11.5 µM.
Take NELSLALGL: the Kd is 0.409 µM in assay [7] (setting [18]); 0.0909 µM in assay [8] (setting [18]); 5.85 µM in [9] (setting [18]); 0.0285 µM in assay [10] (setting [18]); 0.154 µM in assay [11] (setting [18]); 0.277 µM in [12] (setting [18]).
With TEGLCVDIPG, the equilibrium dissociation constant (Kd) was not below 43.3 µM in assay [7] (setting [18]); not below 70.5 µM in assay [8] (setting [18]); 0.0748 µM in assay [9] (setting [18]); not below 34.9 µM in assay [10] (setting [18]); 0.0918 µM in assay [11] (setting [18]); not below 69.6 µM in assay [12] (setting [18]).
Regarding MPALTIACM, the Kd stood at 0.0257 µM in assay [1] (setting [19]); 0.142 µM in assay [13] (setting [19]); 0.836 µM in assay [2] (setting [19]); 3.7 µM in [3] (setting [19]); 5.23 nM in [5] (setting [19]).
Turning to HECFVKRVDW, the Kd in [7] (setting [18]) was 0.302 µM; in [8] (setting [18]) it was 6.62 µM; in assay [9] (setting [18]) it was not below 33.8 µM; in assay [10] (setting [18]), 0.187 µM; in assay [11] (setting [18]), 5.78 µM; in assay [12] (setting [18]), not below 69.6 µM.
For the sequence NDNFLMSNV, the Kd in [7] (setting [19]) is 13.1 µM; in [8] (setting [19]) it was not below 43.6 µM; in assay [9] (setting [19]), not below 10 µM; in [10] (setting [19]) it was 19.6 µM; in assay [11] (setting [19]) it was 2.99 µM; in [12] (setting [19]), not below 27.6 µM.
Turning to HPDMDSMMI, the Kd in assay [1] (setting [17]) was 0.167 µM; in assay [13] (setting [17]) it was 0.806 µM; in [2] (setting [17]), not below 68.4 µM; in assay [3] (setting [17]), 3.31 µM; in assay [5] (setting [17]) it was 1490 nM.
As to GGKVFAPKQ, the IC50 was not below 2250 µM in assay [14] (setting [20]) and not below 244 µM in assay [6] (setting [20]).
On to TPVSMTYLY, for which the equilibrium dissociation constant (Kd) in assay [13] (setting [21]) was 0.17 µM; in assay [2] (setting [21]) it was 0.972 µM; in [3] (setting [21]), not below 77.5 µM; in assay [5] (setting [21]) it was 0.0662 nM.
For the sequence KDMPGGYCL, the Kd in assay [7] (setting [19]) is not below 42.5 µM; in assay [8] (setting [19]), not below 38.9 µM; in assay [9] (setting [19]), 18.2 µM; in assay [10] (setting [19]), not below 78.1 µM; in assay [11] (setting [19]), 0.235 µM; in [12] (setting [19]) it was 17.7 µM.
Regarding ADSDDILTL, the Kd in assay [7] (setting [22]) is not below 20.8 µM; in [8] (setting [22]), not below 77.5 µM; in assay [9] (setting [22]), not below 77.7 µM; in [10] (setting [22]), 6.06 µM; in [11] (setting [22]), not below 22.2 µM; in assay [12] (setting [22]) it was not below 26.9 µM.
For HPLADNKFAL, the Kd in assay [1] (setting [18]) was found to be 0.783 µM; in assay [13] (setting [18]), 0.0971 µM; in assay [2] (setting [18]), 7.11 µM; in [3] (setting [18]) it was 0.991 µM; in assay [5] (setting [18]), 185 nM.
Regarding VPSVNEYHML, the dissociation constant (Kd) in assay [1] (setting [21]) was 2.17 µM; in [13] (setting [21]), 1.21 µM; in [2] (setting [21]), not below 69.9 µM; in assay [3] (setting [21]), not below 52.2 µM; in [5] (setting [21]), 4410 nM.
Taken in the same sequence, the figures for LPHLCLDYKV were 1.08 µM, 8.45 µM, 0.00499 µM, 0.36 µM and 10100 nM.
For SELVIGAVI, the Kd is 0.605 µM in [7] (setting [18]); 2.59 µM in [8] (setting [18]); 0.155 µM in [9] (setting [18]); 0.426 µM in [10] (setting [18]); 0.0559 µM in assay [11] (setting [18]); 0.0889 µM in [12] (setting [18]).
Take LDGQQFYWP: the results for the IC50 in [14] (setting [16]) and in [6] (setting [16]) were not below 210 µM and not below 150 µM, respectively.

As a reminder, the Kd is the equilibrium constant for the complex coming apart. For orientation: IC50 means the concentration at which inhibition is half-maximal.
